According to US20240166755A1, “CHIMERIC ANTIGEN RECEPTORS TARGETING CANCER” (University of Southern California, priority 2016, published 2024):

B1: CD8SP-178-(vL-vH)-Myc-CD28z-T2A-PAC(031615-R04) (scFv)
chain: DIVMTQAAPSIPVTPGESVSISCRSDKSLLHSNGNTYLFWFLQRPGQSPQLLIYRMSNLASGVPDRFSGSGSGTAFTLRISGVEAEDVGVYYCMQHLEYPYTFGGGTKLEIKGGGGSGGGGSGGGGSQVQLQQSGPELVKPGASVKMSCKASGYAFSSSWLNWVRQRPGKGLEWIGRIYPGDGENHYNGKFKGKATLTADKSSSTGYMQLSSLTSEDSAVYFCASYYEGGYWGQGTLITVSATREQKLISEEDLKIEVMYPPPYLDNEKSNGTIIHVKGKHLCPSPLFPGPSKPFWVLVVVGGVLACYSLLVTVAFIIFWVRSKRSRLLHSDYMNMTPRRPGPTRKHYQPYAPPRDFAAYRSRVKFSRSADAPAYQQGQNQLYNELNLGRREEYDVLDKRRGRDPEMGGKPRRKNPQEGLYNELQKDKMAEAYSEIGMKGERRRGKGHDGLYQGLSTATKDTYDALHMQALPPRSSGSGEGRGSLLTCGDVEENPG
B2: CD8SP-12E10-(vL-vH)-Myc-CD28z-T2A-PAC(031615-S03) (scFv)
chain: DQVQLQQSGPGLVKPSETLSLTCTVSGDSISSYYWSWIRQPPGKGLEWIGYIYYSGSTNYNPSLKSRVTISVDTSKSQFSLKLSSVTAADTAVYYCARGRYFDVWGRGTMVTSSGGGGSGGGGSGGGGSSSYVLTQPPSVSGSPGQSITISCTGTSSDVGGYNYVSWYQQHPGKAPKLMIYEGSKRPSGVSNRFSGSKSGNTASLTISGLQAEDEADYYCSSYTTRSTRVFGGGTKLTVLGAAATREQKLISEEDLKIEVMYPPPYLDNEKSNGTIIHVKGKHLCPSPLFPGPSKPFWVLVVVGGVLACYSLLVTVAFIIFWVRSKRSRLLHSDYMNMTPRRPGPTRKHYQPYAPPRDFAAYRSRVKFSRSADAPAYQQGQNQLYNELNLGRREEYDVLDKRRGRDPEMGGKPRRKNPQEGLYNELQKDKMAEAYSEIGMKGERRRGKGHDGLYQGLSTATKDTYDALHMQALPPRSSGSGEGRGSLLTCGDVEENPG
B3: CD8SP-AB317-(vL-vH)-Myc-CD28z-T2A-PAC(031615-T04) (scFv)
chain: DIVLTQSPASLAVSLGQSVTISCRASESVEYYGTSLMQWYQQKPGQPPKLLIYGASNVESGVPARFSGSGSGTDFSLNIHPVEEDDIAMYFCQQSRKVPWTFGGGTKLEIKGGGGSGGGGSGGGGSEVKLVESGGGLVKPGGSRKLSCAASGFTFSSYTMSWVRQTPAKRLEWVATISSGSSTIYYADTVKGRFTISRDNAKNTLFLQMTSLRSEDTAMYYCARRWFLDCWGQGTTLTVSSTREQKLISEEDLKIEVMYPPPYLDNEKSNGTIIHVKGKHLCPSPLFPGPSKPFWVLVVVGGVLACYSLLVTVAFIIFWVRSKRSRLLHSDYMNMTPRRPGPTRKHYQPYAPPRDFAAYRSRVKFSRSADAPAYQQGQNQLYNELNLGRREEYDVLDKRRGRDPEMGGKPRRKNPQEGLYNELQKDKMAEAYSEIGMKGERRRGKGHDGLYQGLSTATKDTYDALHMQALPPRSSGSGEGRGSLLTCGDVEENPG
B4: CD8SP-161-(vL-vH)-Myc-CD28z-T2A-PAC(021715-Z07) (scFv)
chain: DDIQMTQSSSSFSVSLGDRVTITCMASEDIYIRLAWYQQKPGNAPRLLISAATSLETGVPSRFSGSGSGKDYTLSITSLQTEDVGTYYCQQYWSSPWTFGGGTKLEINGGGGSGGGGSGGGGSDVQLQESGPGLVKPSQSLSLTCTVTGYSITSDYTWNWIRQFPGNKLEWMGYITYSGSTSYNPSLKSRNSITRDTSKNQFFLQLNSVTTEDTATYYCARLGRRYTMDYWGQGTSVTVSSTREQKLISEEDLKIEVMYPPPYLDNEKSNGTIIHVKGKHLCPSPLFPGPSKPFWVLVVVGGVLACYSLLVTVAFIIFWVRSKRSRLLHSDYMNMTPRRPGPTRKHYQPYAPPRDFAAYRSRVKFSRSADAPAYQQGQNQLYNELNLGRREEYDVLDKRRGRDPEMGGKPRRKNPQEGLYNELQKDKMAEAYSEIGMKGERRRGKGHDGLYQGLSTATKDTYDALHMQALPPRSSGSGEGRGSLLTCGDVEENPG
B5: CD8SP-175-(vL-vH)-Myc-CD28z-T2A-PAC(031615-Q04) (scFv)
chain: DQIVLTQSPAIMSASPGEKVTISCSASSSVSYMYWYQQKPGSSPKPWIYRTSNLASGVPARFSGSGSGTSYSLTISNMEAEDAAAYYCQQYHSYPTTFGGGTKLEVKGGGGSGGGGSGGGGSEVQLVESGGGLVQPKGSLKLSCAASGFSFNTYAMNWVRQAPGKGLEWIAHIRSKSNNFATYYADSVKDRFSISRDASENILFLQMNNLKTEDTAMYYCVRQGGDFPMDYWGQGTSVTVSSTREQKLISEEDLKIEVMYPPPYLDNEKSNGTIIHVKGKHLCPSPLFPGPSKPFWVLVVVGGVLACYSLLVTVAFIIFWVRSKRSRLLHSDYMNMTPRRPGPTRKHYQPYAPPRDFAAYRSRVKFSRSADAPAYQQGQNQLYNELNLGRREEYDVLDKRRGRDPEMGGKPRRKNPQEGLYNELQKDKMAEAYSEIGMKGERRRGKGHDGLYQGLSTATKDTYDALHMQALPPRSSGSGEGRGSLLTCGDVEENPG

Target: human MPL (thrombopoietin receptor) (human) (UniProt P40238)
Test: cell-based or functional assay

Row | GFP induction (%) in CAR-expressing Jurkat-NFAT-EGFP cells, target cell line HEL [%] | GFP induction (%) in CAR-expressing Jurkat-NFAT-EGFP cells, target cell line RAJI-Mpl [%] | GFP induction (%) in CAR-expressing Jurkat-NFAT-EGFP cells, target cell line RAJI-vector [%] | Binder
1 | 2 | 3 | 4 | B1
2 | 5 | 6 | 4 | B2
3 | 1 | 6 | 3 | B3
4 | 14 | 11 | 5 | B4
5 | 33 | 18 | 11 | B5
